Measurements: paper PMC6646356, “The AAA + ATPase TorsinA polymerizes into hollow helical tubes with 8.5 subunits per turn” (Nature Communications, 2019)
Changes are numbered by the printed parent chain.

What was measured:
[1] = target: the molecule itself; assay: SEC; gel filtration of affinity-purified MBP-TorsinA; self-association, elution in the void volume
[2] = target: the molecule itself; assay: negative-stain electron microscopy; purified TorsinA variants without liposomes, diluted in ATP-containing buffer (HEPES/NaOH pH 8.0, NaCl, 10 mM MgCl2, ATP), 2% uranyl acetate stain; filament formation (self-polymerisation); MBP tag uncleaved or cleaved with 3C protease

B1: MBP-TorsinA (human TorsinA residues 51–332, N-terminally MBP-tagged) (domain or fragment, UniProt O14656 51-332, looked up)
chain: GQKRSLSREALQKDLDDNLFGQHLAKKIILNAVFGFINNPKPKKPLTLSLHGWTGTGKNFVSKIIAENIYEGGLNSDYVHLFVATLHFPHASNITLYKDQLQLWIRGNVSACARSIFIFDEMDKMHAGLIDAIKPFLDYYDLVDGVSYQKAMFIFLSNAGAERITDVALDFWRSGKQREDIKLKDIEHALSVSVFNNKNSGFWHSSLIDRNLIDYFVPFLPLEYKHLKMCIRVEMQSRGYEIDEDIVSRVAEEMTFFPKEERVFSDKGCKTVFTKLDYYYDD
notes: TorsinA, human, residues 51-332; MBP tag is cleavable by human rhinovirus 3C protease; uncleaved in this form; Forms helical polymers of no fixed size; also called MBP-tagged TorsinA; wild-type; source: E. coli LOBSTR(DE3) RIL, purified (amylose resin); not shown: MBP, N-terminal, kept
[1]
  binding result: binds

B2: TorsinA K174E (domain or fragment, human, UniProt O14656 51-332, looked up)
chain: B1 chain with K124E
notes: TorsinA, human, residues 51-332; source: E. coli LOBSTR(DE3) RIL, purified (amylose resin)
[2]
  binding result: binds

B3: TorsinA K174A (domain or fragment, human, UniProt O14656 51-332, looked up)
chain: B1 chain with K124A
notes: as for B2
[2]
  binding result: binds

B4: TorsinA H140N (domain or fragment, human, UniProt O14656 51-332, looked up)
chain: B1 chain with H90N
notes: as for B2
[2]
  binding result: binds

B5: TorsinA (human, residues 51–332), MBP cleaved with 3C protease (domain or fragment, UniProt O14656 51-332, looked up)
chain: B1 chain
notes: TorsinA, human, residues 51-332; Helical polymer, 8.5 subunits per turn; nucleotide modeled as ATP; also called TorsinA filaments; TorsinA polymers; source: E. coli LOBSTR(DE3) RIL, purified (amylose resin), MBP cleaved with 3C protease during dialysis; not shown: MBP, N-terminal, cleaved
[2]
  binding result: binds
